Key:
[1] = target: T1, TNFR-2/Ig; experiment: ELISA, TNFR-2/Ig coated, antibody 1 µg/ml
T1 construct: also called Tumor Necrosis Factor Receptor-2
Experimental: (§1) We then washed the plate with PBST (PBS+0.1% Tween-20) three times and blocked the plate with PBST+0.5% BSA at 150 µl/well. We incubated the plate at room temperature for 1 hour and then washed with PBST three times. […] We incubated the plate at room temperature for 1 hour then washed with PBST three times. […] We incubated the plate at room temperature for 1 hour and then washed with PBST three times. […] We then read the plate using a SpectraMax™ plate reader.

[2] = target: T2, human CD40-IgG1 Fc fusion protein (human, UniProt P25942 21-193); experiment: SPR BIAcore 3000, CD40-Ig immobilised, antibody injected
T2 construct: extracellular domain; also called CD40-Ig fusion protein; CD40-IgG fusion protein; not shown: human IgG1 Fc

[3] = target: T3, rat CD40 on blood cells (rat, UniProt A6JXD6 20-289); experiment: FACS, whole blood
T3 construct: also called rat blood
T3 sequence: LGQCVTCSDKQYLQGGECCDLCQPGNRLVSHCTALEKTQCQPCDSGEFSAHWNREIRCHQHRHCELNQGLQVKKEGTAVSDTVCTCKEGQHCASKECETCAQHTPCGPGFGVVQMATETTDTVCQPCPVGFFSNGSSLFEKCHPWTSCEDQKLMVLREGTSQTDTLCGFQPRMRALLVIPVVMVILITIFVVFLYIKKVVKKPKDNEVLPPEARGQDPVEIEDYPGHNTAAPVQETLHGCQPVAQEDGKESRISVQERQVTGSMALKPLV

[4] = target: T4, mouse CD40 on blood cells (mouse, UniProt P27512 20-289); experiment: FACS, whole blood
T4 construct: whole, on cells; also called mouse blood

[5] = target: T5, dog CD40 on blood cells (dog, UniProt Q7YRL5 21-274); experiment: FACS, whole blood
T5 construct: whole, on cells; also called dog blood
T5 sequence (looked up): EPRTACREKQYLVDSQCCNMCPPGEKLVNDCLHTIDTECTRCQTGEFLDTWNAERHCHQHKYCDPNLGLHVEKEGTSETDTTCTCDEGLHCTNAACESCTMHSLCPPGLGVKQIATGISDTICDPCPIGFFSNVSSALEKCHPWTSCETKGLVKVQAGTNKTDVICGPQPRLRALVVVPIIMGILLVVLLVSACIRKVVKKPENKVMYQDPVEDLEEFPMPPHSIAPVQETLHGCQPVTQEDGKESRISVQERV

[6] = target: RANK/Ig; experiment: ELISA, RANK/Ig coated, antibody 1 µg/ml
Experimental: as §1

[7] = target: T6, TNFR-1/Ig; experiment: ELISA, TNFR-1/Ig coated, antibody 1 µg/ml
T6 construct: also called Tumor Necrosis Factor Receptor-1
Experimental: as §1

[8] = target: T7, 4-1BB/Ig; experiment: ELISA, 4-1BB/Ig coated, antibody 1 µg/ml
T7 construct: also called CD137
Experimental: as §1

[9] = target: T8, human CD40 on cells (human, UniProt P25942 21-277); experiment: cell-based or functional assay
[10] = target: T8, human CD40 on cells; experiment: cell-based or functional assay; remark: listed apart in the source
[11] = target: T8, human CD40 on cells; experiment: cell-based or functional assay; remark: listed apart in the source
[12] = target: T8, human CD40 on cells; experiment: cell-based or functional assay; remark: listed apart in the source

Chain of RANK/Ig (Q9Y6Q6 whole entry): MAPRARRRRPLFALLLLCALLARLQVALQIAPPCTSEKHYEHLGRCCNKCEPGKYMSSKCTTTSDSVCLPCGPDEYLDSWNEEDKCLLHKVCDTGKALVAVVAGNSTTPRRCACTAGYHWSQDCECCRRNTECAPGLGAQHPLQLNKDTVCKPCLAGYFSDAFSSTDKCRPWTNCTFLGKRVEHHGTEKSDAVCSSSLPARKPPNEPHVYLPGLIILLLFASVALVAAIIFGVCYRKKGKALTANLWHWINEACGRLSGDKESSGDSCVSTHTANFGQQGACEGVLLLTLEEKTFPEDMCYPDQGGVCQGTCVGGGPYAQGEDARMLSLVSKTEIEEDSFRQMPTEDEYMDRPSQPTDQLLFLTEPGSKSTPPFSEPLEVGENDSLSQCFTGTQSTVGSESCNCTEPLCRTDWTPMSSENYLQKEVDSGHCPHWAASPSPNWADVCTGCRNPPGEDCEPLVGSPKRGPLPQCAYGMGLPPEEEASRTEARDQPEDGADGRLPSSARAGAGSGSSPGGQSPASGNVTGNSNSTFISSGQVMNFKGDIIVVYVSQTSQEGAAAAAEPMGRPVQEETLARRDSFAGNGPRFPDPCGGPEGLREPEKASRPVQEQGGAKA
T6 sequence (P19438 whole entry): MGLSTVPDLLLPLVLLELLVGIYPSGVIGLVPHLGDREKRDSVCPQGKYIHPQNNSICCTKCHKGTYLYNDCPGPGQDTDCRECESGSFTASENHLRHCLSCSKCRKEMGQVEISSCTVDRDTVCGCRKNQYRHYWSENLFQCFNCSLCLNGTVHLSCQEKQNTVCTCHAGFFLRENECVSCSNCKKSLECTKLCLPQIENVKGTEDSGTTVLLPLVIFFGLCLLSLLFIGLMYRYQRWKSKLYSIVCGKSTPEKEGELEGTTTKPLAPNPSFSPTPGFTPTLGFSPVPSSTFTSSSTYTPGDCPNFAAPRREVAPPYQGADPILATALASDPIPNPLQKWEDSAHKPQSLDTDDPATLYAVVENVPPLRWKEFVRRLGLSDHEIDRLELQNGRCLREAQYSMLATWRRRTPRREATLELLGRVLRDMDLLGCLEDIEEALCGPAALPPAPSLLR
T1 sequence (P20333 23-257): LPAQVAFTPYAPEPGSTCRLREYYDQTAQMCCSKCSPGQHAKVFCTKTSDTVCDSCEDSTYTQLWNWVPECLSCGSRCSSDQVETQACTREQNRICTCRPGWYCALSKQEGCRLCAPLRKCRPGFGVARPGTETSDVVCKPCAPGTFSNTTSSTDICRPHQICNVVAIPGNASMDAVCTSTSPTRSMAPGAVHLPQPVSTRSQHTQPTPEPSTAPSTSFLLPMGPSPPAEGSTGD
T8 sequence (P25942 21-277): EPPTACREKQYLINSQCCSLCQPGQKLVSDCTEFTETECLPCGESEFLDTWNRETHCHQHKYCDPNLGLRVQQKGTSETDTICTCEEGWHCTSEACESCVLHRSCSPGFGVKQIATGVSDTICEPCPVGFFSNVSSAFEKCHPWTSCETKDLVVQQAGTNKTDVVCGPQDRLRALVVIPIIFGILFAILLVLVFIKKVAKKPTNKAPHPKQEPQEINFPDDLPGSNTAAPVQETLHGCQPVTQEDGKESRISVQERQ
T2 sequence (P25942 21-193): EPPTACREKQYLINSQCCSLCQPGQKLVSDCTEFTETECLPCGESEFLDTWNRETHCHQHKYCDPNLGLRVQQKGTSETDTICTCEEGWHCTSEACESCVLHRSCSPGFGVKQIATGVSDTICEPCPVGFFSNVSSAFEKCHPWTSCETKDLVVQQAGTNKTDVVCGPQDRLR
T4 sequence (P27512 20-289): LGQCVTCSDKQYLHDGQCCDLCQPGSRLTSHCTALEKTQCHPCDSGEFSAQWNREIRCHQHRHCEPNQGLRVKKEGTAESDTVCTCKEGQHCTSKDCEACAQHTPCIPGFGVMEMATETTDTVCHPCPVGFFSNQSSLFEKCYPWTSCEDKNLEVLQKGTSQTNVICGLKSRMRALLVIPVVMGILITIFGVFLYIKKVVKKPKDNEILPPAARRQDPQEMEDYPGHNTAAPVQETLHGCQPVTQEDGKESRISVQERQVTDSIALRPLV

B1: monoclonal antibody 15.1.1 (antibody, human IgG2, kappa, V domains shown)
VH: QVQLQESGPGLVKPSETLSLTCTVSGGSIRSYYWTWIRQPPGKGLEWIGYIYYSGSTNYNPSLKSRVTISVDMSKNQFSLKLSSVTAADTAVYYCARKGDYGGNFNYFHQWGQGTLVTVSS
VL: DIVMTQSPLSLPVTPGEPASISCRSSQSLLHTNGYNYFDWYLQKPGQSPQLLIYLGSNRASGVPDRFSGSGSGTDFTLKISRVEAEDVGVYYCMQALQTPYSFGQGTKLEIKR
notes: Human IgG2 kappa from hybridoma; also called hybridoma 15.1.1 (LN 15851), ATCC PTA-3603
CD40 specific signal over the signal for this molecule [1]: ≥ 100 fold
Kd [2]: 0.00405 nM
koff [2]: 2.83e-07 s⁻¹
kon [2]: 83000 M⁻¹ s⁻¹
binding result [3]: no binding
binding result [4]: no binding
binding result [5]: no binding
CD40 specific signal over the signal for this molecule [6]: ≥ 100 fold
CD40 specific signal over the signal for this molecule [7]: ≥ 100 fold
CD40 specific signal over the signal for this molecule [8]: ≥ 100 fold

B2: monoclonal antibody 3.1.1 (antibody, human IgG2, kappa, V domains shown)
VH: QVQLVESGGGVVQPGRSLRLSCAASGFTFSSYGMHWVRQAPGKGLEWVAVISKDGGNKYHADSVKGRFTISRDNSKNALYLQMNSLRVEDTAVYYCVRRGHQLVLGYYYYNGLDVWGQGTTVTVSS
VL: DIVLTQSPLSLPVTPGEPASISCRSSQSLLYSNGYNFLDWYLQKPGQSPQLLIYLGSNRASGVPDRFSGSGSGTDFTLKISRLEAEDVGVYYCMQALQTPRTFGQGTKVEIKR
notes: also called mAb 3.1.1; hybridoma 3.1.1 (LN 15848), ATCC PTA-3600
CD40 specific signal over the signal for this molecule [1]: ≥ 100 fold
Kd [2]: 0.0395 nM
koff [2]: 3.31e-05 s⁻¹
kon [2]: 1.12e+06 M⁻¹ s⁻¹
binding result [3]: no binding
binding result [4]: no binding
binding result [5]: no binding
Allo DC/T IFNγ secretion, EC50 [9]: 0.1 µg/mL
B cell B7-1 (CD80), fold increase in median intensity at 1 µg/ml [10]: 1.7 fold
B cell B7-2 (CD86), fold increase in median intensity at 1 µg/ml [10]: 1.2 fold
B cell CD23, fold increase in median intensity at 1 µg/ml [10]: 5.6 fold
B cell ICAM (CD54), fold increase in median intensity at 1 µg/ml [10]: 1.3 fold
B cell MHC Class II, fold increase in median intensity at 1 µg/ml [10]: 3.2 fold
DC B7-1 (CD80), fold increase in median intensity at 1 µg/ml, 72 h [11]: 1.8 fold
DC B7-2 (CD86), fold increase in median intensity at 1 µg/ml, 72 h [11]: 23.7 fold
DC CD83, fold increase in median intensity at 1 µg/ml, 72 h [11]: 15.2 fold
DC ICAM (CD54), fold increase in median intensity at 1 µg/ml, 72 h [11]: 1.5 fold
DC MHC Class II, fold increase in median intensity at 1 µg/ml, 72 h [11]: 4.4 fold
CD40 specific signal over the signal for this molecule [6]: ≥ 100 fold
DC IL-12p70 secretion with LPS, EC50 [12]: 0.2 µg/mL
CD40 specific signal over the signal for this molecule [7]: ≥ 100 fold
CD40 specific signal over the signal for this molecule [8]: ≥ 100 fold

B3: monoclonal antibody 21.2.1 (antibody, human IgG2, kappa, V domains shown)
VH: QVQLVESGGGVVQPGRSLRLSCAASGFTFSSYVMHWVRQAPGKGLEWVAVMSYDGSSKYYANSVKGRFTISRDNSKNTLYLQINSLRAEDTAVYYCARDGGKAVPGPDYWGQGILVTVSS
VL: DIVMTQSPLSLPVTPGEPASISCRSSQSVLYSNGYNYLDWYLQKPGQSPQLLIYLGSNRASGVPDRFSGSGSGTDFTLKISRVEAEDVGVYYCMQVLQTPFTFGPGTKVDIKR
notes: Human IgG2 kappa from hybridoma
CD40 specific signal over the signal for this molecule [1]: ≥ 100 fold
binding result [3]: no binding
binding result [4]: no binding
binding result [5]: no binding
Allo DC/T IFNγ secretion, EC50 [9]: 0.03 µg/mL
B cell B7-1 (CD80), fold increase in median intensity at 1 µg/ml [10]: 0.9 fold
B cell B7-2 (CD86), fold increase in median intensity at 1 µg/ml [10]: 1 fold
B cell CD23, fold increase in median intensity at 1 µg/ml [10]: 1 fold
B cell ICAM (CD54), fold increase in median intensity at 1 µg/ml [10]: 1.3 fold
B cell MHC Class II, fold increase in median intensity at 1 µg/ml [10]: 1.2 fold
DC B7-1 (CD80), fold increase in median intensity at 1 µg/ml, 72 h [11]: 0.9 fold
DC B7-2 (CD86), fold increase in median intensity at 1 µg/ml, 72 h [11]: 7.4 fold
DC CD83, fold increase in median intensity at 1 µg/ml, 72 h [11]: 10.8 fold
DC ICAM (CD54), fold increase in median intensity at 1 µg/ml, 72 h [11]: 1.5 fold
DC MHC Class II, fold increase in median intensity at 1 µg/ml, 72 h [11]: 1.8 fold
CD40 specific signal over the signal for this molecule [6]: ≥ 100 fold
DC IL-12p70 secretion with LPS, EC50 [12]: 0.03 µg/mL
CD40 specific signal over the signal for this molecule [7]: ≥ 100 fold
CD40 specific signal over the signal for this molecule [8]: ≥ 100 fold

B4: monoclonal antibody 22.1.1 (antibody, human IgG2, kappa, V domains shown)
VH: QVQLVESGGGVVQPGRSLRLSCAASGFTFSRYGMHWVRQAPGKGLEWVAVISSDGGNKYYADSVKGRFTISRDNSKNTLYLQMNSLRAEDTAVYYCTRRGTGKTYYHYCGMDVWGQGTTVTVSS
VL: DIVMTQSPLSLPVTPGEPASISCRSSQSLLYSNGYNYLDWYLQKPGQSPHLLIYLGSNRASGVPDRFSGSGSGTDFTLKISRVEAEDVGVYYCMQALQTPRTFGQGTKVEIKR
notes: Human IgG2 kappa from hybridoma; also called hybridoma 22.1.1 (LN 15875), ATCC PTA-4550
CD40 specific signal over the signal for this molecule [1]: ≥ 100 fold
Kd [2]: 0.279 nM
koff [2]: 0.000155 s⁻¹
kon [2]: 955000 M⁻¹ s⁻¹
binding result [3]: no binding
binding result [4]: no binding
binding result [5]: no binding
Allo DC/T IFNγ secretion, EC50 [9]: 0.3 µg/mL
B cell B7-1 (CD80), fold increase in median intensity at 1 µg/ml [10]: 1.2 fold
B cell B7-2 (CD86), fold increase in median intensity at 1 µg/ml [10]: 1 fold
B cell CD23, fold increase in median intensity at 1 µg/ml [10]: 1.3 fold
B cell ICAM (CD54), fold increase in median intensity at 1 µg/ml [10]: 1.1 fold
B cell MHC Class II, fold increase in median intensity at 1 µg/ml [10]: 1.4 fold
DC B7-1 (CD80), fold increase in median intensity at 1 µg/ml, 72 h [11]: 1.4 fold
DC B7-2 (CD86), fold increase in median intensity at 1 µg/ml, 72 h [11]: 16.3 fold
DC CD83, fold increase in median intensity at 1 µg/ml, 72 h [11]: 12 fold
DC ICAM (CD54), fold increase in median intensity at 1 µg/ml, 72 h [11]: 1.6 fold
DC MHC Class II, fold increase in median intensity at 1 µg/ml, 72 h [11]: 2.3 fold
CD40 specific signal over the signal for this molecule [6]: ≥ 100 fold
DC IL-12p70 secretion with LPS, EC50 [12]: 0.1 µg/mL
CD40 specific signal over the signal for this molecule [7]: ≥ 100 fold
CD40 specific signal over the signal for this molecule [8]: ≥ 100 fold

B5: monoclonal antibody 10.8.3 (antibody, human IgG2, kappa, V domains shown)
VH: QVQLQESGPGLVKPSETLSLTCTVSGGSISSYYWIWIRQPAGKGLEWIGRVYTSGSTNYNPSLKSRVTMSVDTSKNQFSLKLSSVTAADTAVYYCARDGLYRGYGMDVWGQGTTVTVSS
VL: DIQMTQSPSSVSASVGDRVTITCRASQPISSWLAWYQQKPGKAPKLLIYSASGLQSGVPSRFSGSGSGTDFTLTISSLQPEDFATYYCQQTDSFPLTFGGGTKVEIKR
notes: as for B3
CD40 specific signal over the signal for this molecule [1]: ≥ 100 fold
Kd [2]: 0.00223 nM
koff [2]: 4.48e-07 s⁻¹
kon [2]: 222000 M⁻¹ s⁻¹
binding result [3]: no binding
binding result [4]: no binding
binding result [5]: no binding
CD40 specific signal over the signal for this molecule [6]: ≥ 100 fold
CD40 specific signal over the signal for this molecule [7]: ≥ 100 fold
CD40 specific signal over the signal for this molecule [8]: ≥ 100 fold

B6: monoclonal antibody 23.5.1 (antibody, human IgG2, kappa, V domains shown)
VH: QVQLVESGGGVVQPGRSLRLSCVASGFTFSNYGMHWVRQAPGKGLEWVAIISYDGSNKYYADSVKGRFTISRDNSKNTLYVQMNSLRAEDTAVYYCARRGHYGRDYYSYYGLDVWGQGTTVTVSS
VL: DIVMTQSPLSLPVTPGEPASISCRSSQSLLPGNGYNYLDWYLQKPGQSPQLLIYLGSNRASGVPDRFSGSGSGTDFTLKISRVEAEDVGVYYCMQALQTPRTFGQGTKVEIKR
notes: also called hybridoma 23.5.1 (LN 15855), ATCC PTA-4548
CD40 specific signal over the signal for this molecule [1]: ≥ 100 fold
binding result [3]: no binding
binding result [4]: no binding
binding result [5]: no binding
Allo DC/T IFNγ secretion, EC50 [9]: 0.2 µg/mL
B cell B7-1 (CD80), fold increase in median intensity at 1 µg/ml [10]: 1.4 fold
B cell B7-2 (CD86), fold increase in median intensity at 1 µg/ml [10]: 1 fold
B cell CD23, fold increase in median intensity at 1 µg/ml [10]: 1.1 fold
B cell ICAM (CD54), fold increase in median intensity at 1 µg/ml [10]: 1.1 fold
B cell MHC Class II, fold increase in median intensity at 1 µg/ml [10]: 1.4 fold
DC B7-1 (CD80), fold increase in median intensity at 1 µg/ml, 72 h [11]: 1.1 fold
DC B7-2 (CD86), fold increase in median intensity at 1 µg/ml, 72 h [11]: 10.7 fold
DC CD83, fold increase in median intensity at 1 µg/ml, 72 h [11]: 9.2 fold
DC ICAM (CD54), fold increase in median intensity at 1 µg/ml, 72 h [11]: 1.2 fold
DC MHC Class II, fold increase in median intensity at 1 µg/ml, 72 h [11]: 2.3 fold
CD40 specific signal over the signal for this molecule [6]: ≥ 100 fold
DC IL-12p70 secretion with LPS, EC50 [12]: 0.1 µg/mL
CD40 specific signal over the signal for this molecule [7]: ≥ 100 fold
CD40 specific signal over the signal for this molecule [8]: ≥ 100 fold

Source: patent US7288251 (ABGENIX, dated 2007)
